Data from US6759384 (AVENTIS PHARMACEUTICALS, dated 2004).
Starred links: 1 amine or outer side, 2 acyl side, 3 side chain; linkers in the order of their positions; H or OH if unused. Non-standard residues stand in square brackets, D forms with d. No end group written: not given here. *: point of attachment. Phe(3-I,4-NH2) = 4-amino-3-iodo-L-phenylalanine, O=C([C@H](Cc1ccc(N[*:3])c(I)c1)N[*:1])[*:2]; (Chx-CH2)Y = N-(cyclohexylmethyl)-Tyr, O=C([C@H](Cc1ccc(O[*:3])cc1)N(CC1CCCCC1)[*:1])[*:2]; 4‑isoquinolinoyl = 4-isoquinolinoyl N-terminal acyl group, O=C(c1cncc2ccccc12)*; dTyr(Me) = COc1ccc(C[C@@H](N[*:1])C(=O)[*:2])cc1; Phe(4-NH2) = Nc1ccc(C[C@H](N)C(=O)O)cc1; dNMeY = CN[C@H](Cc1ccc(O)cc1)C(=O)O; Quinaldoyl = O=C(c1ccc2ccccc2n1)*; NMeL = CN[C@@H](CC(C)C)C(=O)O; Chg = N[C@H](C(=O)O)C1CCCCC1; Nicotinoyl = O=C(c1cccnc1)*

B1: Ac-Phe(3I,4NH2)-Chg-Arg-Leu-Pro-NH2 (peptide)
peptide: Ac-[Phe(3-I,4-NH2)][Chg]RLP-NH2
SMILES: CC(=O)N[C@@H](Cc1ccc(N)c(I)c1)C(=O)N[C@H](C(=O)N[C@@H](CCCNC(=N)N)C(=O)N[C@@H](CC(C)C)C(=O)N1CCC[C@H]1C(N)=O)C1CCCCC1
B2: (2-quinolinoyl)-Phe(NH2)-Chg-Arg-Leu-Pro-NH2 (peptide)
peptide: Quinaldoyl-F[Chg]RLP-NH2
modifications: not fully specified (residue 1); printed as (2-quinolinoyl)-Phe(NH2)-Chg-Arg-Leu-Pro-NH2
B3: Ac-Phe(pNH2)-Chg-Arg-(Me)Leu-Pro-NH2 (peptide)
peptide: Ac-[Phe(4-NH2)][Chg]R[NMeL]P-NH2
SMILES: CC(=O)N[C@@H](Cc1ccc(N)cc1)C(=O)N[C@H](C(=O)N[C@@H](CCCNC(=N)N)C(=O)N(C)[C@@H](CC(C)C)C(=O)N1CCC[C@H]1C(N)=O)C1CCCCC1
B4: (3-pyridoyl)-Phe(pNH2)-Chg-Arg-Leu-Pro-NH2 (peptide)
peptide: Nicotinoyl-[Phe(4-NH2)][Chg]RLP-NH2
SMILES: CC(C)C[C@H](NC(=O)[C@H](CCCNC(=N)N)NC(=O)[C@@H](NC(=O)[C@H](Cc1ccc(N)cc1)NC(=O)c1cccnc1)C1CCCCC1)C(=O)N1CCC[C@H]1C(N)=O
B5: (4-isoquinolinoyl)-Phe(pNH2)-Chg-Arg-Leu-Pro-NH2 (peptide)
peptide: {4‑isoquinolinoyl}-[Phe(4-NH2)][Chg]RLP-NH2
SMILES: CC(C)C[C@H](NC(=O)[C@H](CCCNC(=N)N)NC(=O)[C@@H](NC(=O)[C@H](Cc1ccc(N)cc1)NC(=O)c1cncc2ccccc12)C1CCCCC1)C(=O)N1CCC[C@H]1C(N)=O
B6: w-L-R-L-A-NH2 (peptide)
peptide: [dW]LRLA-NH2
modifications: N-terminus assumed
SMILES: CC(C)C[C@H](NC(=O)[C@H](N)Cc1c[nH]c2ccccc12)C(=O)N[C@@H](CCCNC(=N)N)C(=O)N[C@@H](CC(C)C)C(=O)N[C@@H](C)C(N)=O

target: T1, human factor Xa (Enzyme Research Laboratories, Inc.) (human, UniProt P00742 41-179; P00742 235-488, limits assumed); experiment: chromogenic FXa inhibition
T1 sequence (P00742 41-179 limits assumed, chain 1 of 2): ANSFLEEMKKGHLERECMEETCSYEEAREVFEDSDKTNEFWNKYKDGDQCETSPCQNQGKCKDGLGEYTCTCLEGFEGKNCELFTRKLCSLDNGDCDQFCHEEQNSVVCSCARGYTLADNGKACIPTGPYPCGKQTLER
T1 sequence (P00742 235-488 limits assumed, chain 2 of 2): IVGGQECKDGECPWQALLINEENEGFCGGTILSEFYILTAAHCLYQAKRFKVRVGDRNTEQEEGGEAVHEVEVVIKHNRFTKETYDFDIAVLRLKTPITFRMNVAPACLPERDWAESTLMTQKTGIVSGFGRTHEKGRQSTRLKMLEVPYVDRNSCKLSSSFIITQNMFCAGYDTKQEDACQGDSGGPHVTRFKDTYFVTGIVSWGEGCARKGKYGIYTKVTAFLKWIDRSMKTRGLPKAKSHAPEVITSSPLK
Experimental: TBS-P buffer (50 mM Tris-Cl, pH 7.8, 200 mM NaCl, 0.05% (w/v) PEG-8000, 0.02% (w/v) NaN_3) was used for this assay. The IC$50$ was determined by combining in appropriate wells of a Costar half-area microtiter plate 25 μl human factor Xa (Enzyme Research Laboratories, Inc.; South Bend Ind.) in TBS-P; 40 μl 10% (v/v) DMSO in TBS-P (uninhibited control) or various concentrations of a peptide to be tested diluted in 10% (v/v) DMSO in TBS-P; and substrate S-2765 (Nα-benzyloxycarbonyl-D-Arg-Gly-L-Arg-p-nitroanilide; Kabi Pharmacia, Inc.; Franklin Ohio) in TBS-P.
The assays were performed by pre-incubating the peptide inhibitor plus enzyme for 10 min, then the assay was initiated by adding substrate to obtain a final volume of 100 μl. The initial velocity of chromogenic substrate hydrolysis was measured by the change in absorbance at 405 nm using a Bio-tek Instruments kinetic plate reader (Ceres UV900HDi) at 25° C. during the linear portion of the time course (usually 1–5 min after addition of substrate). The concentration of inhibitor that caused a 50% decrease in the rate of substrate hydrolysis was predicted by linear regression after plotting the relative rates of hydrolysis (compared to the uninhibited control) versus the log of the peptide concentration. The enzyme concentration was 0.5 nM and substrate concentration was 140 μM.

Row | Binder | Ki [µM]
1 | Ac-[(Chx-CH2)Y][Chg]RLP-NH2 [Ac-(Chx-CH2)Tyr-Chg-Arg-Leu-Pro-NH2] | < 100
2 | B1 | < 100
3 | B2 | < 100
4 | B3 | < 100
5 | B4 | < 100
6 | B5 | < 100

target: T1, human factor Xa (Enzyme Research …); experiment: chromogenic FXa inhibition; remark: another data set of the same source
Summary of the method: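 Human FXa (0.5 nM) preincubated 10 min with inhibitor in TBS-P (pH 7.8, 200 mM NaCl, PEG-8000), then S-2765 added (140 μM). Initial hydrolysis rate read at 405 nm, 25° C.; IC50 by linear regression of relative rate vs log concentration.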

Row | Binder | Ki [µM]
7 | WFREMGGGGG-NH2 [W-F-R-E-M-G-G-G-G-G-NH2] | < 100
8 | WIRNP-NH2 [W-I-R-N-P-NH2] | < 100
9 | WIRTP-NH2 [W-I-R-T-P-NH2] | < 100
10 | B6 | < 100
11 | WLRLA-NH2 [W-L-R-L-A-NH2] | < 100
12 | WLRLAGGGGG-NH2 [W-L-R-L-A-G-G-G-G-G-NH2] | < 100
13 | WLRVAGGGGG-NH2 [W-L-R-V-A-G-G-G-G-G-NH2] | < 100
14 | [dTyr(Me)]IRLP-NH2 [y(Me)-I-R-L-P-NH2] | < 100
15 | YIREFSDY-NH2 [Y-I-R-E-F-S-D-Y-NH2] | < 100
16 | YIRIYERE-NH2 [Y-I-R-I-Y-E-R-E-NH2] | < 100
17 | YIRL-NH2 [Y-I-R-L-NH2] | < 100
18 | YIRLAA-NH2 [Y-I-R-L-A-A-NH2] | < 100
19 | YIRLAAF-NH2 [Y-I-R-L-A-A-F-NH2] | < 100
20 | YIRLAAFT-NH2 [Y-I-R-L-A-A-F-T-NH2] | < 100
21 | YIRLMEMT-NH2 [Y-I-R-L-M-E-M-T-NH2] | < 100
22 | YIRLP-NH2 [Y-I-R-L-P-NH2] | < 100
23 | YIRLPGLL-NH2 [Y-I-R-L-P-G-L-L-NH2] | < 100
24 | YIRLTKMW-NH2 [Y-I-R-L-T-K-M-W-NH2] | < 100
25 | YIRVAQLY-NH2 [Y-I-R-V-A-Q-L-Y-NH2] | < 100
26 | YIRVMNHR-NH2 [Y-I-R-V-M-N-H-R-NH2] | < 100
27 | YIRYRNPI-NH2 [Y-I-R-Y-R-N-P-I-NH2] | < 100
28 | YRYPRDRN-NH2 [Y-R-Y-P-R-D-R-N-NH2] | < 100
29 | YLRFP-NH2 [Y-L-R-F-P-NH2] | < 100
30 | XIRLP (N-(2-CF3-Bzl) on Y1; C-term NH2) [(2-CF3-Bzl)Y-I-R-L-P-NH2] | < 100
31 | XIRLP (N-(2-Et-nBu) on Y1; C-term NH2) [(2-Et-nBu)Y-I-R-L-P-NH2] | < 100
32 | XIRLP (N-(2-Me-Bzl) on Y1; C-term NH2) [(2-Me-Bzl)Y-I-R-L-P-NH2] | < 100

Row | Binder | Ki [µM]
33 | XIRLP (N-(2-Me-nBu) on Y1; C-term NH2) [(2-Me-nBu)Y-I-R-L-P-NH2] | < 100
34 | XIRLP (N-(2-Me-nPentyl) on Y1; C-term NH2) [(2-Me-nPentyl)Y-I-R-L-P-NH2] | < 100
35 | XIRLP (N-(3,3-DiMe-nBu) on Y1; C-term NH2) [(3,3-DiMe-nBu)Y-I-R-L-P-NH2] | < 100
36 | XIRLP (Y1=Y(3,5-Br); C-term NH2) [Y(3,5-Br)-I-R-L-P-NH2] | < 100
37 | XIRLP (Y1=Y(3,5-I); C-term NH2) [Y(3,5-I)-I-R-L-P-NH2] | < 100
38 | XIRLP (N-(Chx-CH2) on Y1; C-term NH2) [(Chx-CH2)Y-I-R-L-P-NH2] | < 100
39 | [dNMeY]IRLP-NH2 [(Me)y-I-R-L-P-NH2] | < 100
40 | XIRLP (N-term Ac; N-(1,2,3,6-4H-Bzl) on Y1; Y1=Y(SO3H); C-term NH2) [Ac-(1,2,3,6-4H-Bzl)Y(SO3H)-I-R-L-P-NH2] | < 100
41 | XIRLP (N-term Ac; N-(1,2,3,6-4H-Bzl) on Y1; C-term NH2) [Ac-(1,2,3,6-4H-Bzl)Y-I-R-L-P-NH2] | < 100
42 | XIRLP (N-term Ac; N-(2,3-DiMe-nPentyl) on Y1; Y1=Y(SO3H); C-term NH2) [Ac-(2,3-DiMe-nPentyl)Y(SO3H)-I-R-L-P-NH2] | < 100
43 | XIRLP (N-term Ac; N-(2,3-DiMe-nPentyl) on Y1; C-term NH2) [Ac-(2,3-DiMe-nPentyl)Y-I-R-L-P-NH2] | < 100
44 | XIRLP (N-term Ac; N-(2-CF3-Bzl) on Y1; Y1=Y(SO3H); C-term NH2) [Ac-(2-CF3-Bzl)Y(SO3H)-I-R-L-P-NH2] | < 100
45 | XIRLP (N-term Ac; N-(2-CF3-Bzl) on Y1; C-term NH2) [Ac-(2-CF3-Bzl)Y-I-R-L-P-NH2] | < 100
46 | XIRLP (N-term Ac; N-(2Et-nBu) on Y1; C-term NH2) [Ac-(2Et-nBu)Y-I-R-L-P-NH2] | < 100
47 | XIRLP (N-term Ac; N-(2-Me-Bzl) on Y1; Y1=Y(SO3H); C-term NH2) [Ac-(2-Me-Bzl)Y(SO3H)-I-R-L-P-NH2] | < 100
48 | XIRLP (N-term Ac; N-(2-Me-Bzl) on Y1; C-term NH2) [Ac-(2-Me-Bzl)Y-I-R-L-P-NH2] | < 100
49 | XIRLP (N-term Ac; N-(2-Me-nBu) on Y1; Y1=Y(SO3H); C-term NH2) [Ac-(2-Me-nBu)Y(SO3H)-I-R-L-P-NH2] | < 100
50 | XIRLP (N-term Ac; N-(2-Me-nPentyl) on Y1; Y1=Y(SO3H); C-term NH2) [Ac-(2-Me-nPentyl)Y(SO3H)-I-R-L-P-NH2] | < 100
51 | XIRLP (N-term Ac; N-(3,3-DiMe-nBu) on Y1; Y1=Y(SO3H); C-term NH2) [Ac-(3,3-DiMe-nBu)Y(SO3H)-I-R-L-P-NH2] | < 100
52 | XIRLP (N-term Ac; N-(3,3-DiMe-nBu) on Y1; C-term NH2) [Ac-(3,3-DiMe-nBu)Y-I-R-L-P-NH2] | < 100
53 | XIRLP (N-term Ac; N-(3,3-DiMe-nPentyl) on Y1; Y1=Y(SO3H); C-term NH2) [Ac-(3,3-DiMe-nPentyl)Y(SO3H)-I-R-L-P-NH2] | < 100
54 | XIRLP (N-term Ac; N-(3,5,5-Me-3-nHexyl) on Y1; C-term NH2) [Ac-(3,5,5-Me-3-nHexyl)Y-I-R-L-P-NH2] | < 100
55 | XIRLP (N-term Ac; N-(Cyclopropyl-CH2) on Y1; Y1=Y(SO3H); C-term NH2) [Ac-(Cyclopropyl-CH2)Y(SO3H)-I-R-L-P-NH2] | < 100
56 | XIRLP (N-term Ac; N-(Cyclopropyl-CH2) on Y1; C-term NH2) [Ac-(Cyclopropyl-CH2)Y-I-R-L-P-NH2] | < 100
57 | XIRLP (N-term Ac; N-(Et-CH═C(CH3)-CH2) on Y1; Y1=Y(SO3H); C-term NH2) [Ac-(Et-CH═C(CH3)-CH2)Y(SO3H)-I-R-L-P-NH2] | < 100
58 | XIRLP (N-term Ac; N-(Et-CH═C(CH3)-CH2) on Y1; C-term NH2) [Ac-(Et-CH═C(CH3)-CH2)Y-I-R-L-P-NH2] | < 100
